# Tested on: Escherichia coli TOP10
# Assay: shrunken log2 fold change of peptide-encoding DNA abundance (4.5 h post-induction vs induction); higher = less antimicrobial activity (less host growth inhibition)
# Conditions: time post-induction: 4.5 h; library: site-saturation at positions 5, 18, 19, 20
# 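Also: peptides expressed intracellularly from a pBAD plasmid library in pooled LB shake-flask culture, induced with 0.3% L-arabinose, DNA abundance read by NGS, three biological replicates, DESeq2 with apeglm shrinkage.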
row,Sequence,shrunken log2 fold change
1,RRIRIRPPRLPRPRPRPQARPRP,-0.115
2,RRIRGRPPRLPRPRPRPCRMPRP,0.0426
3,RRIRKRPPRLPRPRPRPFLFPRP,-0.0622
4,RRIRYRPPRLPRPRPRPAGKPRP,-0.237
5,RRIRLRPPRLPRPRPRPCEHPRP,-0.00776
6,RRIRLRPPRLPRPRPRPIKKPRP,0.0365
7,RRIRIRPPRLPRPRPRPFLCPRP,-0.628
8,RRIRIRPPRLPRPRPRPCLGPRP,-0.157
9,RRIRKRPPRLPRPRPRPPFNPRP,0.0386
10,RRIRPRPPRLPRPRPRPMGMPRP,0.0285
11,RRIRGRPPRLPRPRPRPCPYPRP,0.0633
12,RRIRMRPPRLPRPRPRPLWLPRP,0.563
13,RRIRYRPPRLPRPRPRPMAYPRP,-0.0189
14,RRIRVRPPRLPRPRPRPIHWPRP,-0.131
15,RRIRHRPPRLPRPRPRPNLWPRP,0.173
16,RRIRPRPPRLPRPRPRPHHNPRP,-0.859
17,RRIRFRPPRLPRPRPRPLPVPRP,0.142
18,RRIRWRPPRLPRPRPRPDHKPRP,-0.134
19,RRIRERPPRLPRPRPRPHVYPRP,-0.764
20,RRIRTRPPRLPRPRPRPGYRPRP,-0.0981
21,RRIRRRPPRLPRPRPRPCLVPRP,-0.096
22,RRIRIRPPRLPRPRPRPMTKPRP,0.0447
23,RRIRGRPPRLPRPRPRPWHDPRP,-0.178

row,Sequence,shrunken log2 fold change
1,RRIRTRPPRLPRPRPRPKEYPRP,-1.07
2,RRIRLRPPRLPRPRPRPCQAPRP,0.0641
3,RRIRVRPPRLPRPRPRPRQNPRP,0.00342
4,RRIRARPPRLPRPRPRPLWSPRP,0.263
5,RRIRCRPPRLPRPRPRPIEIPRP,-0.223
6,RRIRWRPPRLPRPRPRPSETPRP,0.0208
7,RRIRCRPPRLPRPRPRPKKNPRP,0.24
8,RRIRFRPPRLPRPRPRPGIVPRP,-0.0228
9,RRIRNRPPRLPRPRPRPWSKPRP,-0.167
10,RRIRARPPRLPRPRPRPAHHPRP,0.123
11,RRIRRRPPRLPRPRPRPTNMPRP,-0.0659
12,RRIRGRPPRLPRPRPRPCCMPRP,0.474
13,RRIRWRPPRLPRPRPRPTRGPRP,0.329
14,RRIRHRPPRLPRPRPRPLMQPRP,-0.248
15,RRIRQRPPRLPRPRPRPGYSPRP,-0.00603
16,RRIRLRPPRLPRPRPRPWPDPRP,-0.148
17,RRIRFRPPRLPRPRPRPSGGPRP,-0.103
18,RRIRRRPPRLPRPRPRPFGAPRP,0.153
19,RRIRHRPPRLPRPRPRPGPWPRP,0.166
20,RRIRKRPPRLPRPRPRPDIQPRP,0.867
21,RRIRYRPPRLPRPRPRPTWVPRP,0.18
22,RRIRNRPPRLPRPRPRPCKIPRP,-0.00963
23,RRIRVRPPRLPRPRPRPYVQPRP,-0.918

row,Sequence,shrunken log2 fold change
1,RRIRKRPPRLPRPRPRPLDQPRP,0.257
2,RRIRVRPPRLPRPRPRPYPYPRP,-0.0982
3,RRIRHRPPRLPRPRPRPRIHPRP,-0.473
4,RRIRKRPPRLPRPRPRPSTIPRP,-0.0803
5,RRIRIRPPRLPRPRPRPLYIPRP,-0.695
6,RRIRYRPPRLPRPRPRPALTPRP,-0.044
7,RRIRSRPPRLPRPRPRPTWHPRP,0.179
8,RRIRLRPPRLPRPRPRPTVDPRP,-0.131
9,RRIRIRPPRLPRPRPRPQDDPRP,0.0213
10,RRIRHRPPRLPRPRPRPKAEPRP,0.0672
11,RRIRKRPPRLPRPRPRPTMGPRP,-0.0139
12,RRIRPRPPRLPRPRPRPNVHPRP,-0.44
13,RRIRCRPPRLPRPRPRPGKLPRP,-0.111
14,RRIRVRPPRLPRPRPRPGSWPRP,0.463
15,RRIRRRPPRLPRPRPRPCSEPRP,-0.0216
16,RRIRNRPPRLPRPRPRPQGCPRP,0.0942
17,RRIRARPPRLPRPRPRPKPRPRP,1.9
18,RRIRLRPPRLPRPRPRPFFHPRP,-0.37
19,RRIRMRPPRLPRPRPRPLPWPRP,1.74
20,RRIRERPPRLPRPRPRPPDSPRP,-0.303
21,RRIRFRPPRLPRPRPRPNQGPRP,-0.197
22,RRIRIRPPRLPRPRPRPGKKPRP,0.0847
23,RRIRYRPPRLPRPRPRPDDQPRP,-0.0136

row,Sequence,shrunken log2 fold change
1,RRIRDRPPRLPRPRPRPIGYPRP,-0.174
2,RRIRHRPPRLPRPRPRPEPYPRP,0.0514
3,RRIRFRPPRLPRPRPRPTYNPRP,-0.767
4,RRIRQRPPRLPRPRPRPFPSPRP,-0.0654
5,RRIRWRPPRLPRPRPRPTCQPRP,0.729
6,RRIRQRPPRLPRPRPRPTLSPRP,0.322
7,RRIRDRPPRLPRPRPRPIGIPRP,0.00854
8,RRIRARPPRLPRPRPRPDENPRP,1.2
9,RRIRCRPPRLPRPRPRPHLYPRP,1.42
10,RRIRPRPPRLPRPRPRPYDMPRP,-0.748
11,RRIRPRPPRLPRPRPRPASCPRP,0.186
12,RRIRRRPPRLPRPRPRPKWMPRP,0.338
13,RRIRCRPPRLPRPRPRPGVAPRP,0.632
14,RRIRARPPRLPRPRPRPKQIPRP,0.146
15,RRIRYRPPRLPRPRPRPARDPRP,0.197
16,RRIRSRPPRLPRPRPRPPTAPRP,0.447
17,RRIRERPPRLPRPRPRPYQYPRP,-0.0129
18,RRIRPRPPRLPRPRPRPTHHPRP,0.264
19,RRIRLRPPRLPRPRPRPRNWPRP,0.751
20,RRIRHRPPRLPRPRPRPRKTPRP,0.00946
21,RRIRERPPRLPRPRPRPNGGPRP,-0.0469
22,RRIRLRPPRLPRPRPRPTSAPRP,0.659
